Consider 3 molecules from patent US6863888.

In data set [1] the target is GAL4-cJun(56-223) (yeast; human), P04386. The data set is described as follows: cell-based or functional assay.
The target in data set [2] is GAL4-cJun(33-223) (yeast; human), P04386. In words: cell-based or functional assay.
In data set [3] the target is GAL4-cJun(43-223) (yeast; human), P04386. The data set is described as follows: cell-based or functional assay.
The target of data set [4] is T1, GSTcJun(33-223), GST fused to c-Jun AA 33-223.
T1 chain: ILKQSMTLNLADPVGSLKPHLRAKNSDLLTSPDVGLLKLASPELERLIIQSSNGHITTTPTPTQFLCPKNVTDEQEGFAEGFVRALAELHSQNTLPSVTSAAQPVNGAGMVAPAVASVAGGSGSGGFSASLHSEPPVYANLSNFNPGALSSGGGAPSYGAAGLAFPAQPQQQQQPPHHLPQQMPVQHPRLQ

Data set [5] concerns the target T2, GSTcJun(Ala63/73), GST fused to c-Jun AA 1-223 with Ser 63 and Ser 73 converted to alanines.
T2 chain: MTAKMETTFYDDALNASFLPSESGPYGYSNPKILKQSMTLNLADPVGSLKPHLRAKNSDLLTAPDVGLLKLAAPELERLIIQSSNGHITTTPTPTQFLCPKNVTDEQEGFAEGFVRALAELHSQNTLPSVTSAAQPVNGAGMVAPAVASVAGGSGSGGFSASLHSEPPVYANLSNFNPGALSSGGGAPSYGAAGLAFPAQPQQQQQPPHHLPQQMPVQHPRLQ

In data set [6] the target is T3, GST-cJun(1-79), GST fused to c-Jun AA 1-79.
T3 chain: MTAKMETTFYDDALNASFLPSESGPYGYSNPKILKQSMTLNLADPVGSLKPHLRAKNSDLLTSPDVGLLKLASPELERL

The target of data set [7] is myelin basic protein (MBP).
In data set [8] the target is GSTvJun, GST fused to the region of v-Jun equivalent to chicken c-Jun AA 1-144 [GST: P08515].
Data set [9] concerns the target GSTcJun(wt), glutathione-S-transferase fused to c-Jun AA 1-223 [GST: P08515].
In data set [10] the target is T4, GST-cJun(43-223), GST fused to c-Jun AA 43-223.
T4 chain: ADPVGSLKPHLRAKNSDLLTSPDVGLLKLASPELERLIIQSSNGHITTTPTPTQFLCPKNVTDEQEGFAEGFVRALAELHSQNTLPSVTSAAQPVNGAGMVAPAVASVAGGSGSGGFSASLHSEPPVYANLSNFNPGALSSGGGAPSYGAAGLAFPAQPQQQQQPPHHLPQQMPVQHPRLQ

B1: c-Jun N-terminal protein kinase (JNK), 46 kD form, endogenous kinase from cell extracts, P45983-2 1-384 (enzyme)
chain: MSRSKRDNNFYSVEIGDSTFTVLKRYQNLKPIGSGAQGIVCAAYDAILERNVAIKKLSRPFQNQTHAKRAYRELVLMKCVNHKNIIGLLNVFTPQKSLEEFQDVYIVMELMDANLCQVIQMELDHERMSYLLYQMLCGIKHLHSAGIIHRDLKPSNIVVKSDCTLKILDFGLARTAGTSFMMTPYVVTRYYRAPEVILGMGYKENVDLWSVGCIMGEMVCHKILFPGRDYIDQWNKVIEQLGTPCPEFMKKLQPTVRTYVENRPKYAGYSFEKLFPDVLFPADSEHNKLKASQARDLLSKMLVIDASKRISVDEALQHPYINVWYDPSEAEAPPPKIPDKQLDEREHTIEEWKELIYKEVMDLEERTKNGVIRGQPSPLAQVQQ
For B1, the Ha-Ras responsiveness, CAT activity of 5xGAL4-Elb-CAT reporter in F9 cells (fold induction) in data set [1] came to 5.2; in data set [2], 9.8; in data set [3], 5.2. In addition, the UV responsiveness, CAT activity of 5xGAL4-Elb-CAT reporter in F9 cells in [1] and in data set [3] was 1.5 fold throughout.

B2: c-Jun N-terminal protein kinase (JNK), 46 kD form, endogenous kinase from cell extracts (protein)
chain: B1 chain
Take B2: the “phosphorylation of the GSTcJun fusion protein by bound kinase” value in data set [4] is listed as “Removal of AA 1-32 decreased phosphorylation of GSTcJun but had only a small effect on kinase binding”. Also, the “phosphorylation in solid-phase kinase assay” value in data set [5] is given as “Phosphorylation of this protein was considerably lower than that of GSTcJun(wt)”.

B3: epitope-tagged JNK1 (Flag epitope Asp-Tyr-Lys-Asp-Asp-Asp-Asp-Lys inserted between codons 1 and 2), expressed in COS cells (protein)
chain: MDYKDDDDKSRSKRDNNFYSVEIGDSTFTVLKRYQNLKPIGSGAQGIVCAAYDAILERNVAIKKLSRPFQNQTHAKRAYRELVLMKCVNHKNIIGLLNVFTPQKSLEEFQDVYIVMELMDANLCQVIQMELDHERMSYLLYQMLCGIKHLHSAGIIHRDLKPSNIVVKSDCTLKILDFGLARTAGTSFMMTPYVVTRYYRAPEVILGMGYKENVDLWSVGCIMGEMVCHKILFPGRDYIDQWNKVIEQLGTPCPEFMKKLQPTVRTYVENRPKYAGYSFEKLFPDVLFPADSEHNKLKASQARDLLSKMLVIDASKRISVDEALQHPYINVWYDPSEAEAPPPKIPDKQLDEREHTIEEWKELIYKEVMDLEERTKNGVIRGQPSPLAQVQQ
B3: the “phosphorylation, immunecomplex kinase assay” value in data set [6] was “JNK1 efficiently phosphorylated GST-cJun fusion proteins containing residues 1-223 and 1-79 of c-Jun”; in data set [7], “both GST-vJun and myelin basic protein (MBP) are very poor substrates for JNK1”; in data set [8], “both GST-vJun and myelin basic protein (MBP) are very poor substrates for JNK1”; in [9], “JNK1 efficiently phosphorylated GST-cJun fusion proteins containing residues 1-223 and 1-79 of c-Jun”; in [10], “a deletion of c-Jun NH2-terminal sequences including the d-domain (residues 1-42) caused a marked decrease in phosphorylation by JNK1”; in data set [5], “Replacement of Ser-63 and Ser-73 with Ala also decreased the observed phosphorylation”.
